B1: EHEE_rd2_1257 (parent)
chain: EEERTFTNEEEARKAKKEAEKRGLRVTVTKDGTTWRVRIG

Variants of: B1
Assay: folding stability dG (cDNA display proteolysis); higher = more stable
Conditions: PBS, room temperature

Folding stability dG [kcal/mol]: each site, then its substitutions
R22: I 1.59 | T 1.06 | D 1.09 | Y 1.69 | F 1.62 | G 1.02 | S 1.44 | C 1.55 | P -0.245 | N 1.72 | M 2.18 | K 1.8 | H 1.72 | Q 1.88 | A 1.91 | L 2.19 | W 1.72 | V 1.45 | E 1.23
A19: N 0.597 | E 0.159 | T 0.176 | H 1.06 | W 2.02 | M 2.11 | Q 0.398 | F 2.11 | L 2.46 | K 0.052 | Y 2.37 | V 0.703 | I 1.53 | D -0.295 | S 0.779 | G 1.06 | C 2.03
W35: T 0.358 | R 0.023 | H 0.478 | G -0.505 | L 0.579 | A -0.238 | P 0.178 | E -0.181 | F 1.32 | Q -0.107 | N -0.29 | Y 1.35 | M 0.332 | V 0.55 | S -0.143 | K -0.11 | D -0.409 | I 1.3
D31: V 2.27 | C 2.04 | T 1.76 | S 1.72 | N 1.57 | Y 1.75 | M 1.74 | F 1.69 | L 1.74 | K 1.34 | I 2.22 | H 1.78 | E 2.15 | A 1.41 | R 1.32 | Q 1.7 | W 1.51 | G 0.303
T34: L 2.76 | K 1.97 | D 1.53 | W 2.08 | I 2.63 | S 1.82 | H 2.12 | E 1.81 | R 1.87 | M 2.37 | F 2.53 | Y 2.4 | A 1.68 | V 2.62 | N 2.02 | Q 1.97 | G 1.83
L24: G 0.057 | W 1.61 | M 1.79 | F 2.15 | V 1.21 | D 0.447 | R 1.19 | Q 1.41 | A 0.982 | E 0.879 | K 1.18 | I 1.16 | T 0.162 | S 0.594 | Y 2.08 | H 1.46 | N 0.631
K30: D 1.24 | S 2.14 | Y 3.22 | R 2.04 | N 1.9 | F 3.53 | G 1.32 | H 2.22 | I 1.66 | L 1.99 | E 1.31 | V 1.83 | A 1.53 | P 0.867 | T 2.57 | Q 2.13 | W 3.02 | M 1.75
K16: M 2.66 | F 2.35 | L 1.95 | E 2.31 | G 2.33 | S 1.99 | Q 2.91 | T 1.89 | H 1.53 | V 3 | R 1.75 | Y 2.2 | C 2.25 | W 2.37 | I 2.99 | N -0.159
T29: S 1.62 | C 1.83 | D 1.2 | F 2.32 | L 1.8 | R 1.51 | M 1.83 | I 2.36 | Q 1.63 | E 1.87 | K 1.34 | Y 2.33 | V 2.18 | H 1.7 | A 1.29 | N 1.09 | W 2.6 | G 0.178
E20: F 1.02 | R 1.11 | V 1.39 | T 1.11 | L 1.69 | D 0.837 | G 0.5 | A 1.2 | Q 1.67 | M 1.66 | H 0.935 | N 0.952 | I 1.63 | Y 1.03 | S 0.861 | C 1.45 | K 1.14 | W 1.27
V26: L 0.171 | F 0.359 | T 0.897 | S 0.809 | P -0.777 | A 2.13 | M 0.445 | Y 0.032 | G 0.489 | I 0.589 | W 0.008
K21: Y 1.82 | I 1.93 | W 1.71 | G 2.11 | F 1.89 | L 2.31 | V 1.82 | R 2.19 | H 1.82 | M 2.45 | E 2.25 | A 2.53 | N 2.06 | Q 2.17 | D 2.25 | T 1.88 | S 2.38
T27: V 1.88 | D 1.05 | I 1.95 | M 1.53 | N 1.15 | F 1.83 | L 1.58 | S 1.77 | Y 1.92 | E 1.64 | R 1.62 | A 1.19 | W 1.96 | H 1.57 | Q 1.49 | K 1.43 | G 0.262
G23: Q 0.383 | E -0.609 | N 0.986 | R 0.397 | M 0.537 | A 0.188 | K 0.384 | C 1.58 | F 0.9 | D -0.065 | H 0.993 | Y 0.68 | V 0.034 | L 0.537 | S 0.399 | W 0.38
T33: F 2.18 | R 1.57 | Y 2.15 | M 2 | D 3.11 | S 2.15 | P 2.58 | I 1.89 | K 2.05 | H 2.11 | Q 2.27 | L 2.12 | E 2.77 | W 1.65 | A 2.13 | V 1.84 | C 2.5 | G 2.28 | N 2.63
V28: W 0.937 | Q -0.917 | A -0.179 | I 2.71 | M 2.37 | C 1.96 | T 0.613 | L 2.58 | Y 0.822 | F 1.45
R25: D 1.23 | A 1.62 | F 2.07 | W 1.98 | S 1.88 | M 1.81 | H 2.15 | P 1.47 | E 1.5 | K 2.06 | T 1.9 | I 1.95 | N 1.62 | L 1.87 | Q 1.89 | G 0.797 | V 1.93 | Y 2.07
K17: F 2.36 | G 1.78 | S 2.19 | N 2.15 | W 2.39 | H 2.24 | R 2.3 | I 2.5 | M 2.48 | Y 2.44 | V 2.27 | E 2.7 | T 2.11 | D 2.44 | Q 2.36 | L 2.45 | A 2.47
E18: V 1.3 | K 1.11 | G 0.934 | M 1.72 | S 1.4 | A 1.84 | F 1.56 | R 1.22 | L 1.64 | H 1.43 | Q 1.64 | W 2.24 | N 1.48 | T 1.33 | I 1.48 | D 1.91 | Y 1.59
G32: T 0.399 | D 1.26 | M 0.351 | Y 0.01 | R 0.337 | V 0.363 | L 0.595 | Q 0.902 | E 1.26 | A 0.985 | H 0.713 | K 0.693 | N 0.966 | I -0.071 | S 0.582 | F 0.011
